Measured values as given in the supplement of paper PMC9170038.

Test system: MS2 coat protein
Experiment: apparent KD of MS2 coat protein; designed switch direction (-1 OFF switch, 1 ON switch): -1; higher = weaker reporter binding
Outline: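 The apparent KD reported per design is the median over clusters of curve fits to normalised cluster fluorescence. The RNA switches were transcribed on Illumina chips by stalled E. coli RNA polymerase. SNAP-549-labelled MS2 coat protein was titrated from 0.7 or 1.5 nM, doubling up to 3 µM, in Tris-HCl pH 7.5 buffer containing KCl, MgCl2, BSA, DTT, tRNA and Tween-20, with no input, 200 uM small-molecule ligand, or an oligonucleotide input.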

[1] = input ligand: microRNA oligo, concentration not stated
[2] = Eterna round: R95, input ligand: microRNA oligo, concentration not stated

Sequence	apparent KD of MS2 coat protein (input ligand: FMN 200 uM) [µM]	apparent KD of MS2 coat protein (input ligand: none) [µM]	apparent KD of MS2 coat protein [1] [µM]	apparent KD of MS2 coat protein [2] [µM]	apparent KD of MS2 coat protein (Eterna round: R95, input ligand: FMN 200 uM) [µM]	apparent KD of MS2 coat protein (Eterna round: R95, input ligand: none) [µM]
ACACUGCGAGGAUAUACAUGAGGAUCACCCAUGUAUCGGUAGACAAGGUUAAUUUAAGGUAGAAGGCGCGUAUU [JR_Ex3_Sub008] (Eterna round: R97, puzzle: Exclusion 3)	0.0369	0.0291	–	–	–	–
ACAGAGUCAGGAUAUCGCCGUGGCAGUCUCAACCAGCGGAACGAGAAGGGACAUGAGGAUCACCCAUGUCUGUU [Eternabot (Original) Solution 36] (Eterna round: R97, puzzle: Exclusion 4)	0.0207	0.0186	–	–	–	–
ACAUCACAGCUAGGAUAUAGAUGACAUGAGGAUCACCCAUGUUAUCCCAUGUUGACGGAAACCGACUAGAAGGAGCUACAGAUG [Ex NG2 #7] (Eterna round: R96, puzzle: Exclusion NG 2)	0.129	0.0479	0.0418	–	–	–
ACAUGAGGAUCACCCAUGUCAGGUGGGUCCUCUCCGGCUGUUGAGGAUAUAGUCCGGUAUCCGCGCUAGAAGGUGAGGGCCGGC [Aenatbe mod 17] (Eterna round: R96, puzzle: Exclusion NG 3)	0.0298	0.0337	0.0311	–	–	–
ACAUGAGGAUCACCCAUGUCCGUCUGAUCUGUCUCGGCUGUCGAGGAUAUAGCCCGGUAUCCGCGCUAGAAGGUGGGAGUCGGA [Aenatbe mod 100] (Eterna round: R96, puzzle: Exclusion NG 3)	0.0349	0.042	0.0334	–	–	–
ACAUGAGGAUCACCCAUGUCUGGCUGGUCCGUCUCGGCUGUCGAGGAUAUGGCUCGGUGUCCGCGCUAGAAGGCGGGAGCUGGU [Aenatbe mod 79] (Eterna round: R96, puzzle: Exclusion NG 3)	0.195	0.0775	0.045	–	–	–
ACAUGAGGAUCACCCAUGUGAAAAGAAUGGCUGACACAGAGUUAGGAUAUGCGUGCAUAUCUAACGCAGAAGGGACAUGACUGG [Deportation 82 - Jieux - Exclusion NG 3] (Eterna round: R96, puzzle: Exclusion NG 3)	0.0337	0.0302	0.0339	–	–	–
ACAUGAGGAUCACCCAUGUGACCACAAUGGCUGAUAUAGAAACAGGAUAUUCGUGAAUAUCUAACGAAGAAGGGUUAUGACUGG [Deportation 65 - Jieux - Exclusion NG 3] (Eterna round: R96, puzzle: Exclusion NG 3)	–	–	0.061	–	–	–
ACAUGAGGAUCACCCAUGUGACCACAAUGGCUGAUGUAACGACAGGAUAUGCGUGAAUAUCUAACGCAGAAGGGUCAUGACUGG [Deportation 61 - Jieux - Exclusion NG 3] (Eterna round: R96, puzzle: Exclusion NG 3)	0.0628	0.0482	0.0305	–	–	–
ACAUGAGGAUCACCCAUGUGACCACGAUGGCUGAUGUAGAGCUAGGAUAUGUGUGAAUAUCUAUCACAGAAGGAGCUUGACUGG [Deportation 52 - Jieux - Exclusion NG 3] (Eterna round: R96, puzzle: Exclusion NG 3)	0.0247	0.0257	0.0183	–	–	–
ACAUGAGGAUCACCCAUGUGCACGUAAUGGCUCAUGUAGAGAGAGGAUAUGUGUGACGAACGAGCACAGAAGGCUCAAGACUGG [Deportation 14 - Jieux - Exclusion NG 3] (Eterna round: R96, puzzle: Exclusion NG 3)	0.202	0.179	0.133	–	–	–
ACAUGAGGAUCACCCAUGUGCACGUAAUGGCUCAUGUAGAGUGAGGAUAUGCGUGGCGAACUCGCGCAGAAGGCACAAGACUGG [Deportation 19 - Jieux - Exclusion NG 3] (Eterna round: R96, puzzle: Exclusion NG 3)	0.0888	0.0825	0.0659	–	–	–
ACAUGAGGAUCACCCAUGUGGACGUAAAGGCUCAUGUAGAGUGAGGAUAUGUGAGACGAACGAGAACAGAAGGCACAAGACAGG [Deportation 6 - Jieux - Exclusion NG 3] (Eterna round: R96, puzzle: Exclusion NG 3)	0.0157	0.0199	0.0167	–	–	–
ACAUGAGGAUCACCCAUGUUCGGCUGGUCCGUCUCGGCUGUCGAGGAUAUAGCUCGGUGUCCGCGCUAGAAGGCGGGAGCUGGC [Aenatbe mod 66] (Eterna round: R96, puzzle: Exclusion NG 3)	0.106	0.09	0.047	–	–	–
ACAUGAGGCGAAGGAUAUCUUUAGAGGAUUACCAGAGAAGGUCGACAUGAGGAUCACCCAUGUACAUGAGGGUCUUGAAUGUUA [9th something] (Eterna round: R96, puzzle: Exclusion NG 1)	0.245	0.25	0.199	–	–	–
ACAUGAUACUAGGAUAUCAGCAUACUUCAAUGUUGAGAAGGAGUAACAUGAGGAUCACCCAUGUAUCCAACAUG [Exclusion 6 - 4:b] (puzzle: Exclusion 6)	–	–	–	0.0435	–	–

Sequence	apparent KD of MS2 coat protein (input ligand: FMN 200 uM) [µM]	apparent KD of MS2 coat protein (input ligand: none) [µM]	apparent KD of MS2 coat protein [1] [µM]	apparent KD of MS2 coat protein [2] [µM]	apparent KD of MS2 coat protein (Eterna round: R95, input ligand: FMN 200 uM) [µM]	apparent KD of MS2 coat protein (Eterna round: R95, input ligand: none) [µM]
ACAUGUAAUGCAGGAUAUCGGACACAUGAGGAUCACCCAUGUGACCUGAGGUAUUGCUAAGAGUCUGAGAAGGGUAUGUACAUG [Ex NG2 #51] (Eterna round: R96, puzzle: Exclusion NG 2)	0.0287	0.0204	0.0157	–	–	–
ACAUGUAAUGUAGGAUAUUUUACACAUGAGGAUCACCCAUGUGACCAGAGGCUUUACUAUGAGUAAAAGAAGGGUAUGUACAUG [Ex NG2 #60] (Eterna round: R96, puzzle: Exclusion NG 2)	0.0696	0.0542	0.0335	–	–	–
ACAUGUCAUCGAGGAUAUUGGACACAUGAGGAUCACCCAUGUACCCGGAGGCUCUACUAUGAGUUCGAGAAGGCGAUGUACAUG [Ex NG2 #74] (Eterna round: R96, puzzle: Exclusion NG 2)	0.169	0.0256	0.0195	–	–	–
ACAUGUGUUGUAGGAUAUAGGAGACAUGAGGAUCACCCAUGUUGAUUCAUGUCUAUGGAAACGUCCUAGAAGGACGACAACAUG [Ex NG2 #20] (Eterna round: R96, puzzle: Exclusion NG 2)	0.237	0.201	0.111	–	–	–
ACAUGUGUUGUAGGAUAUAGUGGACAUGAGGAUCACCCAUGUUGAUUCAUGUCUAUGGAAACGUACUAGAAGGACGACAAUAUG [Ex NG2 #18] (Eterna round: R96, puzzle: Exclusion NG 2)	0.806	1.05	0.875	–	–	–
ACAUUACAUGAGGAUCACCCAUGUGAGGAUAUGGUGCGGUAGUGUCCUGUCGCGUACACCAGAAGGCGCGGGUG [1st #47] (Eterna round: R97, puzzle: Exclusion 1)	0.122	0.258	–	–	–	–
ACAUUCAGAGGAUAUGCGCAUAGAUAAGACUUUGUUUCUUAACAUGAGGAUCACCCAUGUAGAAGGCUGUACCC [Ex2 #66] (Eterna round: R97, puzzle: Exclusion 2)	0.0266	0.0209	–	–	–	–
ACAUUCAGAGGAUAUGCGCAUAGAUAAGACUUUUUUUUUUAACAUGAGGAUCACCCAUGUAGAAGGCUGUAACC [Ex2 #48] (Eterna round: R97, puzzle: Exclusion 2)	0.0238	0.0243	–	–	–	–
ACAUUGAAUGUGAGGAUAUCGAUGUGAUGGGUUGUCGAGAAGGCACAUGAGGAUCACCCAUGUGGGAAACAGCA [JR_BMEx4_Sub031] (Eterna round: R97, puzzle: Brourd's mod of Exclusion 4)	0.127	0.0446	–	–	–	–
ACAUUGUAUGUGAGGAUAUCGAUGGGAUGGGUUGUCGAGAAGGCACAUGAGGAUCACCCAUGUAAGGGACAGCA [JR_BMEx4_Sub029] (Eterna round: R97, puzzle: Brourd's mod of Exclusion 4)	0.295	0.0831	–	–	–	–
ACCGACAGAGGAUAUGCAAGUAGGAACAUGAGGAUCACCCAUGUGAUACGUGCACGUGCGGCAGAAGGCUGAUCGA [Velamaed] (Eterna round: R97, puzzle: Exclusion 5)	0.0171	0.0154	–	–	–	–
ACCUAACAUGAGGAUCACCCAUGUCAGGAUAUCCAAGCGAAAGCAAAAGCGAAAGCAAGGAGAAGGGACAGAGG [ChP 04-04-2015 #8] (puzzle: Exclusion 1)	–	–	–	0.0324	0.0622	0.0284
ACCUCACAUGAGGAUCACCCAUGUCAGGAUAUCUAAUAUUGCAGCGUUCCCGACGCUGAGAGAAGGGACAUUAA [EX1 #30] (Eterna round: R97, puzzle: Exclusion 1)	0.0296	0.0177	–	–	–	–
ACCUCUGAGGAGGAUAUACAGUGCGAAAGGACAGUAGAAGGCUUCACAUGAGGAUCACCCAUGUCGAAAAGUGA [EX6 #80] (Eterna round: R97, puzzle: Exclusion 6)	0.127	0.0926	–	–	–	–
ACGACCUGAGGAUAUACAUGAGGAUCACCCAUGUAUGCAACAGCCGGGAAAUCCCGAUGUAGAAGGCAGGAAAA [Eternabot (Original) Solution 26] (Eterna round: R97, puzzle: Exclusion 3)	0.252	0.0322	–	–	–	–
ACGAUGAUCGAAAAGUGUAAACUAACAUGAGGAUCACCCAUGUAGGAUAUGGCUACGAAAAGUAGUCAGAAGGGCAUGUCAUCA [3 Av mod - 2] (Eterna round: R96, puzzle: Exclusion NG 3)	0.024	0.0203	0.0132	–	–	–
